Reference: US20250257346A1

Columns and labels:
Trastuzumab = assay: cell-based or functional assay
[1] = target: human IVIg (intravenous immunoglobulin)

IdeE mutant R280H (enzyme)
Fold of activity relative to wild-type (cleavage of human IgG1, ELISA) (Trastuzumab): 2.3 fold
cleavage of human IgG1, SDS-PAGE (fold of wild-type IdeE) (Trastuzumab): > 2

IdeE mutant A59I (enzyme)
Fold of activity relative to wild-type (cleavage of human IgG1, ELISA) (Trastuzumab): 2.31 fold

IdeE mutant T24A (enzyme)
Fold of activity relative to wild-type (cleavage of human IgG1, ELISA) (Trastuzumab): 2.23 fold
cleavage of human IgG1, SDS-PAGE (fold of wild-type IdeE) (Trastuzumab): > 2

IdeE mutant A10R (enzyme)
Fold of activity relative to wild-type (cleavage of human IgG1, ELISA) (Trastuzumab): 2.2 fold

IdeE mutant T8Y (enzyme)
Fold of activity relative to wild-type (cleavage of human IgG1, ELISA) (Trastuzumab): 2.3 fold

IdeE mutant E97D (enzyme)
Fold of activity relative to wild-type (cleavage of human IgG1, ELISA) (Trastuzumab): 2 fold
cleavage of human IgG1, SDS-PAGE (fold of wild-type IdeE) (Trastuzumab): > 2

IdeE mutant A59V (enzyme)
Fold of activity relative to wild-type (cleavage of human IgG1, ELISA) (Trastuzumab): 2.68 fold
cleavage of human IgG1, SDS-PAGE (fold of wild-type IdeE) (Trastuzumab): > 2

IdeE mutant T24S (enzyme)
Fold of activity relative to wild-type (cleavage of human IgG1, ELISA) (Trastuzumab): 2.18 fold

IdeE C-terminal truncated mutant WT_delC5 (enzyme)
cleavage of human IgG1, SDS-PAGE (fold of wild-type IdeE) (Trastuzumab): > 2

IdeE C-terminal truncated mutant WT_delC10 (enzyme)
cleavage of human IgG1, SDS-PAGE (fold of wild-type IdeE) (Trastuzumab): > 2

IdeE mutant A59L (enzyme)
Fold of activity relative to wild-type (cleavage of human IgG1, ELISA) (Trastuzumab): 2.41 fold
cleavage of human IgG1, SDS-PAGE (fold of wild-type IdeE) (Trastuzumab): > 2

IdeE mutant T8W (enzyme)
Fold of activity relative to wild-type (cleavage of human IgG1, ELISA) (Trastuzumab): 2.58 fold
cleavage of human IgG1, SDS-PAGE (fold of wild-type IdeE) (Trastuzumab): > 2

IdeE mutant T24G (enzyme)
Fold of activity relative to wild-type (cleavage of human IgG1, ELISA) (Trastuzumab): 2.09 fold

IdeE mutant T8E (enzyme)
Fold of activity relative to wild-type (cleavage of human IgG1, ELISA) (Trastuzumab): 2.09 fold

IdeE mutant R280K (enzyme)
Fold of activity relative to wild-type (cleavage of human IgG1, ELISA) (Trastuzumab): 2.2 fold

IdeE mutant T8D (enzyme)
Fold of activity relative to wild-type (cleavage of human IgG1, ELISA) (Trastuzumab): 2.21 fold
cleavage of human IgG1, SDS-PAGE (fold of wild-type IdeE) (Trastuzumab): > 2

IdeE mutant A10K (enzyme)
Fold of activity relative to wild-type (cleavage of human IgG1, ELISA) (Trastuzumab): 1.99 fold

B1: IdeE mutant IDEEV2 (protein)
chain: ITSVWTKGVTPLTPEQFRYNNEDVIHAPYLAHQGWYDITKAFDGKDNLLCGAATAGNMLHWWFDQNKTEIEAYLSKHPDKQKIIFNNQELFDLKAAIDTKDSQTNSQLFNYFRDKAFPNLSARQLGVMPDLVLDMFINGYYLNVFKTQSTDVNRPYQDKDKRGGIFDAVFTRGDQTTLLTARHDLKNKGLNDISTIIKQELTEGRALALSHTYANVSISHVINLWGADFNAEGNLEAIYVTDSDANASIGMKKYFVGINAHGHVAISAKKIEGENIGAQVLGLFTLSSGKDIWQKLS
digestion of purified IgG, non-reduction SDS-PAGE (1:200) (canine IgG): IDEEV2 can in species-specificity effectively digest IgG in rabbits, dogs, monkeys, and humans
digestion of purified IgG, non-reduction SDS-PAGE (1:200) (human IgG): IDEEV2 can in species-specificity effectively digest IgG in rabbits, dogs, monkeys, and humans
digestion of purified IgG, non-reduction SDS-PAGE (1:200) (monkey IgG): IDEEV2 can in species-specificity effectively digest IgG in rabbits, dogs, monkeys, and humans
digestion of purified IgG, non-reduction SDS-PAGE (1:200) (rabbit IgG): IDEEV2 can in species-specificity effectively digest IgG in rabbits, dogs, monkeys, and humans

B2: IdeE combined mutant E97D_del18 (protein)
chain: ITSVWTKGVTPLTPEQFRYNNEDVIHAPYLAHQGWYDITKAFDGKDNLLCGAATAGNMLHWWFDQNKTEIEAYLSKHPDKQKIIFNNQELFDLKAAIDTKDSQTNSQLFNYFRDKAFPNLSARQLGVMPDLVLDMFINGYYLNVFKTQSTDVNRPYQDKDKRGGIFDAVFTRGDQTTLLTARHDLKNKGLNDISTIIKQELTEGRALALSHTYANVSISHVINLWGADFNAEGNLEAIYVTDSDANASIGMKKYFVGINAHRHVAISAKKIEGENIGAQVLGLFTLSSGKDIWQKLSHHHHHH
cleavage in human serum, SDS-PAGE (IgG1 in human serum): E97D_del18 cleaves in human serum to produce an apparent 25 kD Fc fragment
cleavage in mouse serum, SDS-PAGE (IgG1 in mouse serum): little or no cleavage activity against IgG1 in mouse serum
cleavage of serum IgG, SDS-PAGE (canine IgG): can effectively cleave rabbit, canine, and monkey serum IgG
cleavage, SDS-PAGE (canine IgG): E97D_del18 could effectively cleave canine IgG, rabbit IgG and mouse IgG2a
cleavage of human IVIg in mouse serum and plasma, SDS-PAGE [1]: E97D_del18 is effective in cleaving human IVIg in both mouse serum and plasma
cleavage of serum IgG, SDS-PAGE (monkey IgG): can effectively cleave rabbit, canine, and monkey serum IgG
cleavage of serum IgG, SDS-PAGE (mouse IgG): almost no cleavage effect for rat and mouse serum IgG
cleavage of serum IgG, SDS-PAGE (pig serum IgG): poor cleavage effect for pig serum IgG
cleavage of serum IgG, SDS-PAGE (rabbit IgG): can effectively cleave rabbit, canine, and monkey serum IgG, with the best cleavage effect for rabbit serum IgG
cleavage, SDS-PAGE (rabbit IgG): E97D_del18 could effectively cleave canine IgG, rabbit IgG and mouse IgG2a
cleavage of serum IgG, SDS-PAGE (rat IgG): almost no cleavage effect for rat and mouse serum IgG
